Laboratory results reported in US20230322924A1 (Janssen / Centocor, published 2023).
Changes are numbered by the printed parent chain.

B1: C33B916 (antibody, V domains shown)
VH: QVQLVESGGGVVQPGRSLRLSCATSGFTFSNYGMHWVRQAPGKGLEWVAVIWYVGSHKYYADSVKGRFTISRDNSKNTLYLQMNSLRAEDTAVYYCARDGSLCFDYWGQGTLVTVSS
VL: SYELTQPPSVSVSPGQTANISCSGVTLGYNYAYWYQQKPGQSPILVISQDTQRPSGIPERFSGSNSGNTATLTISGTQAMDEAAYYCQAWDITTVLFGGGTKLTVL
notes: OMNIMouse-derived anti-CD33 mAb; same V regions as C33B908; also called C33H256/C33L122; C33F554
B2: PS3B84 (bispecific antibody, human IgG4 S228P, kappa, lambda, F234A L235A)
heavy 1: not shown
light 1: not shown
heavy 2: QVQLQQSGPRLVRPSQTLSLTCAISGDSVFNNNAAWSWIRQSPSRGLEWLGRTYYRSKWLYDYAVSVKSRITVNPDTSRNQFTLQLNSVTPEDTALYYCARGYSSSFDYWGQGTLVTVSSASTKGPSVFPLAPCSRSTSESTAALGCLVKDYFPEPVTVSWNSGALTSGVHTFPAVLQSSGLYSLSSVVTVPSSSLGTKTYTCNVDHKPSNTKVDKRVESKYGPPCPPCPAPEAAGGPSVFLFPPKPKDTLMISRTPEVTCVVVDVSQEDPEVQFNWYVDGVEVHNAKTKPREEQFNSTYRVVSVLTVLHQDWLNGKEYKCKVSNKGLPSSIEKTISKAKGQPREPQVYTLPPSQEEMTKNQVSLTCLVKGFYPSDIAVEWESNGQPENNYKTTPPVLDSDGSFLLYSKLTVDKSRWQEGNVFSCSVMHEALHNHYTQKSLSLSLGK
light 2: QSALTQPASVSGSPGQSITISCTGTSSNIGTYKFVSWYQQHPDKAPKVLLYEVSKRPSGVSSRFSGSKSGNTASLTISGLQAEDQADYHCVSYAGSGTLLFGGGTKLTVLGQPKAAPSVTLFPPSSEELQANKATLVCLISDFYPGAVTVAWKADSSPVKAGVETTTPSKQSNNKYAASSYLSLTPEQWKSHRSYSCQVTHEGSTVEKTVAPTECS
notes: IgG4 PAA; also called PSMB344 x CD3B376
B3: PS3B78 (bispecific antibody, human IgG4 S228P, kappa, lambda, F234A L235A)
heavy 1: not shown
light 1: not shown
heavy 2: B2 heavy 2
light 2: B2 light 2
notes: IgG4 PAA; also called PSMB359 x CD3B376
B4: PS3B82 (bispecific antibody, human IgG4 S228P, kappa, lambda, F234A L235A)
heavy 1: not shown
light 1: not shown
heavy 2: B2 heavy 2
light 2: B2 light 2
notes: IgG4 PAA; also called PSMB362 x CD3B376
B5: PS3B76 (bispecific antibody, human IgG4 S228P, kappa, lambda, F234A L235A)
heavy 1: not shown
light 1: not shown
heavy 2: B2 heavy 2
light 2: B2 light 2
notes: IgG4 PAA; also called PSMB358 x CD3B376
B6: PS3B81 (bispecific antibody, human IgG4 S228P, kappa, lambda, F234A L235A)
heavy 1: not shown
light 1: not shown
heavy 2: B2 heavy 2
light 2: B2 light 2
notes: IgG4 PAA; also called PSMB361 x CD3B376
B7: PS3B79 (bispecific antibody, human IgG4 S228P, kappa, lambda, F234A L235A)
heavy 1: not shown
light 1: not shown
heavy 2: B2 heavy 2
light 2: B2 light 2
notes: IgG4 PAA; also called PSMB360 x CD3B376
B8: PS3B77 (bispecific antibody, human IgG4 S228P, kappa, lambda, F234A L235A)
heavy 1: not shown
light 1: not shown
heavy 2: B2 heavy 2
light 2: B2 light 2
notes: IgG4 PAA; also called PSMB349 x CD3B376
B9: PS3B80 (bispecific antibody, human IgG4 S228P, kappa, lambda, F234A L235A)
heavy 1: not shown
light 1: not shown
heavy 2: B2 heavy 2
light 2: B2 light 2
notes: IgG4 PAA; also called PSMB347 x CD3B376
B10: BLW-3B4 (antibody, V domains shown)
VH: QVQLQQSGPGLVKPSQTLSLTCAISGDSVFNNNAAWSWIRQSPSRGLEWLGRTYYRSKWLYDYAVSVKSRITVNPDTSRNQFTLQLNSVTPEDTALYYCVRGYSSSFDYWGQGTLVTVSS
VL: QSALTQPASVSGSPGQSITISCTGTSRDIGTYKFVSWYQQHPDKAPKVLLYEVSKRPSGVSSRFSGSKSGNTASLTISGLQAEDQADYHCCSYAGSGTLLFGGGTKLTVL
notes: OmniRat hybridoma supernatant: human V regions on rat constant regions; also called V regions cloned as CD3B313 (CD3H218/CD3L125)
B11: BLX-3F4 (antibody, V domains shown)
VH: B10 VH with Q3R, S66T, N87T, V100A
VL: B10 VL with R27S, D28N
notes: OmniRat hybridoma supernatant: human V regions on rat constant regions; also called V regions cloned as CD3B316 (CD3H222/CD3L124)
B12: BLW-2E6 (antibody, V domains shown)
VH: B10 VH with G10R, K13R, V100A
VL: B10 VL with R27S, D28N
notes: OmniRat hybridoma supernatant: human V regions on rat constant regions; also called V regions cloned as CD3B312 (CD3H219/CD3L124)
B13: BLW-2B4 (antibody, V domains shown)
VH: B10 VH
VL: B10 VL with S54N
notes: OmniRat hybridoma supernatant: human V regions on rat constant regions; also called V regions cloned as CD3B311 (CD3H218/CD3L123)
B14: BLX-2E9 (antibody, V domains shown)
VH: B10 VH with A34G, V100A
VL: B10 VL with R27S, D28N
notes: OmniRat hybridoma supernatant: human V regions on rat constant regions; also called V regions cloned as CD3B315 (CD3H221/CD3L124)
B15: BLX-3G8 (antibody, V domains shown)
VH: B10 VH with S37T, N87K, V100S
VL: B10 VL with R27S, D28N
notes: OmniRat hybridoma supernatant: human V regions on rat constant regions; also called V regions cloned as CD3B317 (CD3H223/CD3L124)
B16: BLX-1F8 (antibody, V domains shown)
VH: B10 VH with N87K, V100S
VL: B10 VL with R27S, G70D
notes: OmniRat hybridoma supernatant: human V regions on rat constant regions; also called V regions cloned as CD3B314 (CD3H220/CD3L126)

Each binder was assayed against T1, Human CD33 full length (human, UniProt P20138 18-364) (assay: flow cytometry on HEK293F cells expressing human CD33).
T1 construct: also called huCD33
T1 sequence (P20138 18-364 limits assumed): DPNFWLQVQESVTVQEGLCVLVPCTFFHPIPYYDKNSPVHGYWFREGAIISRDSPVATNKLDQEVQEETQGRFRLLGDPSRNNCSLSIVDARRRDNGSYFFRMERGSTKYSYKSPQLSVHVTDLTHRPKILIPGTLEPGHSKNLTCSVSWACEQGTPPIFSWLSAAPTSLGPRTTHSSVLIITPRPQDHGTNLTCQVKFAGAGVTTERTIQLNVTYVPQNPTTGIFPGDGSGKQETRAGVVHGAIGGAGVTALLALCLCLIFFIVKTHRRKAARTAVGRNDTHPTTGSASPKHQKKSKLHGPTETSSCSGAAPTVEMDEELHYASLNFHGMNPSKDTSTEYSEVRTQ
Method: (§1) The purified antibodies were assessed for binding to stably transfected HEK293F cells expressing human CD33 or cyno CD33 (generation described above) along with the parental HEK293F as negative control. Cells were harvested from tissue culture flasks using non-enzymatic dissociation buffer (Thermo Scientific). The flasks were rinsed twice with PBS and dissociation buffer was added to the flask, and the flask was incubated for 10 minutes at 37° C. until the cells became non-adherent. The cells were centrifuged at 300 g for 5 minutes and resuspended at 1.0×10⁶ cells/ml in staining buffer (Becton Dickinson; Franklin Lakes, NJ). 50,000 cells/well of each cell type was plated in 50 μl of staining buffer in round bottom plates (Becton Dickinson). […] 100 μl staining buffer was added to all wells of each plate, the plates were spun at 300 g for 5 min, the buffer was removed, 200 μl staining buffer was added to all wells of each plate, the plates were spun at 300 g for 5 min, and the buffer was removed. 50 μl of 2 μg/ml of Goat-anti-human Fc AF647 secondary antibody (Jackson Immunoresearch; West Grove, PA) was added to all wells of the plates, and the plates were incubated for 30 min at 4° C. 100 μl staining buffer was added to all wells of the plates, the plates were spun at 300 g for 5 min, and the buffer was removed. 200 μl running buffer (running buffer is Staining buffer, 1 mM EDTA, 0.1% Pluronic Acid) was added to all wells of the plates, the plates were spun at 300 g for 5 min, and the buffer was removed. 30 μl running buffer containing Sytox Green live/dead dye (ThermoFisher) was added to all wells with cells and the plates were read on an iQue IntelliCyt flow cytometer. Cells were gated on forward vs. side scatter to eliminate debris, then on singlets and then on live cells which excluded the Sytox stain. Antibody binding was assessed by the mean fluorescence intensity in the AF647 channel.
(§2) The OmniMouse panel (8 mAbs total) was generated separately and characterized further for binding to cells.

| MFI at 0 nM (background) [MFI] | MFI at 0.6 nM [MFI] | MFI at 6 nM [MFI] | MFI at 60 nM [MFI] | Binder |
| --- | --- | --- | --- | --- |
| 167 | 193000 | 404000 | 448000 | B1 |

These binders were tested against T2, Cyno CD33 full length (cynomolgus monkey) (assay: flow cytometry on HEK293F cells expressing cyno CD33).
T2 construct: also called cyCD33
Method: as §1, §2

| MFI at 0 nM (background) [MFI] | MFI at 0.6 nM [MFI] | MFI at 6 nM [MFI] | MFI at 60 nM [MFI] | Binder |
| --- | --- | --- | --- | --- |
| 104 | 22800 | 33300 | 41000 | B1 |

What follows are binders tested against T3, human PSMA on cells (LNCaP) (human, UniProt Q04609 1-750) (assay: flow cytometry cell binding assay on LNCaP cells).
T3 construct: whole, on cells; also called LNCaP cells
T3 sequence (Q04609 whole entry): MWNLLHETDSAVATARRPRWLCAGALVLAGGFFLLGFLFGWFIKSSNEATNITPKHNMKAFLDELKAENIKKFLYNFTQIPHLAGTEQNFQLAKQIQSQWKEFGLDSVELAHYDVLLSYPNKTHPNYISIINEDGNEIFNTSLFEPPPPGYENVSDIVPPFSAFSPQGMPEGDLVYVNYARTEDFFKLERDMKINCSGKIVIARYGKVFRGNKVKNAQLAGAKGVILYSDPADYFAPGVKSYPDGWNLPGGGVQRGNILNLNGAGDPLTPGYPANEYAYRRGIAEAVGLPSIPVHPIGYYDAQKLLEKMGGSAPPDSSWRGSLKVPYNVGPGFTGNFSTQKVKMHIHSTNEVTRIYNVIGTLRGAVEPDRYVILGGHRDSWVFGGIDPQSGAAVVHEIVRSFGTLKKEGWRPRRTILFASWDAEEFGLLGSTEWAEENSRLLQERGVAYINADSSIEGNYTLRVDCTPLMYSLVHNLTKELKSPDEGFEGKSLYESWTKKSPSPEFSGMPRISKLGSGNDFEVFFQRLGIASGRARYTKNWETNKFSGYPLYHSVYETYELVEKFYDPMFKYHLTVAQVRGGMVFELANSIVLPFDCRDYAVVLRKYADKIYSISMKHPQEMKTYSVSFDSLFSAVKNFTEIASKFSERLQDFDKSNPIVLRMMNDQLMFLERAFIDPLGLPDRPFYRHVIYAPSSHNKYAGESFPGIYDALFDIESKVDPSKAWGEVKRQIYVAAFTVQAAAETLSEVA
Method: PSMA×CD3 bispecific antibodies were tested for binding to PSMA positive cell line, LNCAP, to PSMA negative cell line, PC3. To assess the binding capabilities of the PSMA bispecific antibodies, the cell-binding assay was utilized (described previously). Bispecific antibodies were normalized for protein concentration and then incubated with the same number of cells expressing either human or cyno PSMA. The MFI at each concentration was collected by flow cytometry and plotted as a function of concentration. Data was transformed via log 10 and then plotted. Nonlinear regression of binding curves was done to determine EC50s.

| binding result | Binder |
| --- | --- |
| binds | B2 |
| binds | B3 |
| binds | B4 |
| binds | B5 |
| binds | B6 |
| binds | B7 |
| binds | B8 |
| binds | B9 |

What follows are binders tested against T4, Human CD33 ECD-HSA (human) (assay: ProteOn SPR, mAb captured on anti-human Fc, antigen as analyte).
T4 construct: CD33 ECD fused at the C-terminus to monomeric HSA (C58S) and a six-histidine tag; also called C33W2; huCD33 ECD-HSA
Method: (§3) The panel of mAbs was then further characterized for full affinity analysis as well as epitope binning. The binding of anti-CD33 mAbs to recombinant human CD33 ECD-HSA (C33W2) and cyno CD33 ECD-HSA (C33W1) was measured by ProteOn SPR (Bio-Rad). […] Different mAbs were captured on the anti-human Fc IgG surface at 0.25 or 0.5 μg/ml (160-300 RU) in vertical ligand orientation, with the 6th ligand channel as no ligand surface control. Human and cyno CD33-HSA proteins at 0.3 μM concentration in 3-fold dilution series of 5 concentrations flew in as analyte to bind to captured mAbs in the horizontal orientation. A buffer sample was also injected in the 6th channel to monitor the dissociation of captured mAb and baseline stability. […] The raw biding data were processed by double referencing after subtracting the response data from: 1) the inter-spot to correct for the non-specific interactions between the Ag and the empty chip surface; 2) the buffer channel to correct for baseline drifting due to the dissociation of captured mAb surface over time. The processed data at all antigen concentrations for each mAb were globally fit to a 1:1 simple Langmuir binding model to extract estimates of the kinetic (kₒₙ, koff) and affinity (Kd) constants.

| Kd [nM] | koff [s⁻¹] | kon [M⁻¹ s⁻¹] | Binder |
| --- | --- | --- | --- |
| 0.655 | 0.000411 | 627000 | B1 |

What follows are binders tested against T5, Cyno CD33 ECD-HSA (cynomolgus monkey) in the same assay as above.
T5 construct: Cyno CD33 ECD fused to HSA and a six-histidine tag; also called C33W1
Method: as §3

| Kd [nM] | koff [s⁻¹] | kon [M⁻¹ s⁻¹] | Binder |
| --- | --- | --- | --- |
| 0.852 | 0.000403 | 473000 | B1 |

What follows are binders tested against T6, human CD3 on human T cells (human, UniProt P07766 23-207) (assay: flow cytometry, Jurkat CD3+ (E6-1)).
T6 construct: Native TCR-CD3 complex on cells; also called primary human T cells; human pan T cells
T6 sequence (P07766 23-207 limits assumed): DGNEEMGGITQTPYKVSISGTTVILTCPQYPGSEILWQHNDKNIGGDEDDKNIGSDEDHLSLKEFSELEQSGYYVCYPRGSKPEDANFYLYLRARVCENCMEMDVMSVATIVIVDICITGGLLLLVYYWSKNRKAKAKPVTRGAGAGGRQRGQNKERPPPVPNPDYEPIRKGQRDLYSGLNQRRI

| % positive [%] | geomean | Binder |
| --- | --- | --- |
| 72 | 199000 geometric mean fluorescence | B10 |
| 66 | 182000 geometric mean fluorescence | B11 |
| 3 | 7500 geometric mean fluorescence | B12 |
| 53 | 148000 geometric mean fluorescence | B13 |
| 72 | 199000 geometric mean fluorescence | B14 |
| 77 | 215000 geometric mean fluorescence | B15 |
| 53 | 148000 geometric mean fluorescence | B16 |

Each binder was assayed against T7, human CD3e/d complex on cells transiently transfected with pOPT-CD3e/d-hum-mix (human, UniProt P07766 23-126; P04234 22-171) (assay: CELISA, hybridoma supernatant).
T7 construct: Tagged screening constructs
T7 sequence (P07766 23-126 limits assumed, chain 1 of 2): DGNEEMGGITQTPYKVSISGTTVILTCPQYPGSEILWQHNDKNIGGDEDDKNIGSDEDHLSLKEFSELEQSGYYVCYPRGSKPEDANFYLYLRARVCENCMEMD
T7 sequence (P04234 22-171 limits assumed, chain 2 of 2): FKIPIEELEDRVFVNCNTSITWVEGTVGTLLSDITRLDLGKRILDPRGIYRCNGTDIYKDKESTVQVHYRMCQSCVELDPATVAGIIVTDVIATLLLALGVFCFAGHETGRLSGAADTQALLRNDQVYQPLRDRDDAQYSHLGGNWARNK
Method: (§4) Hybridoma supernatants from fusions BLW (with magnetic bead depletion of lymphocytes) and BLX (without magnetic bead depletion of lymphocytes) were analyzed a) by a cell-based ELISA (CELISA) on cells transiently transfected with human and cynomolgus cDNA cloned into screening vectors: pOPT-CD3e-hum-epsilon-TCE.OMT+pOPT-CD3d-hum-delta.OMT, 1:1 (pOPT-CD3e/d-hum-mix) and pcDNA3.1-CD3e-cyn-[…]+pcDNA3.1-CD3d-cyn-delta, 1:1 (pcDNA3.1-CD3e/d-cyn-mix). For CELISA negative control, non-transfected mammalian cells were incubated with hybridoma supernatants and detected with the secondary Bethyl antibody. For a CELISA transfection control, mammalian cells, transfected with the constructs described above, were detected with anti-tag antibody.

| % positive [%] | Rfu [rfu] | Binder |
| --- | --- | --- |
| 127 | 867 | B10 |
| 131 | 896 | B11 |
| 34 | 231 | B12 |
| 101 | 689 | B13 |
| 127 | 867 | B14 |
| 111 | 759 | B15 |
| 101 | 689 | B16 |

These binders were tested against T8, cynomolgus CD3e/d complex on cells transiently transfected with pcDNA3.1-CD3e/d-cyn-mix (cynomolgus, UniProt Q95LI5 22-198; Q95LI8 22-171) (assay: CELISA, hybridoma supernatant).
T8 construct: Tagged screening constructs
T8 sequence (Q95LI5 22-198 limits assumed, chain 1 of 2): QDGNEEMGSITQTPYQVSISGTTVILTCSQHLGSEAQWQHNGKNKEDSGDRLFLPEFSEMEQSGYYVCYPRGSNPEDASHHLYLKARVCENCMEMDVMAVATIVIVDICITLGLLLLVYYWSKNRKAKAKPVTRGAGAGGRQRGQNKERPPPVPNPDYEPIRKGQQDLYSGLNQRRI
T8 sequence (Q95LI8 22-171 limits assumed, chain 2 of 2): as the sequence (P04234 22-171 limits assumed, chain 2 of 2) above, with I5V, N15K, I20V, S32T, D33N, I34N, T64A, S74N, V83L, H141R counted along it
Method: as §4

| % positive [%] | Rfu [rfu] | Binder |
| --- | --- | --- |
| 66 | 320 | B10 |
| 76 | 371 | B11 |
| 25 | 121 | B12 |
| 47 | 230 | B13 |
| 66 | 320 | B14 |
| 70 | 340 | B15 |
| 47 | 230 | B16 |
